Results published in patent publication US20110118131A1 (published 2011).
Positions count from the first letter of the chain named.

T1: Ep-CAM (UniProt P16422 24-265, limits assumed)
T1 sequence (looked up): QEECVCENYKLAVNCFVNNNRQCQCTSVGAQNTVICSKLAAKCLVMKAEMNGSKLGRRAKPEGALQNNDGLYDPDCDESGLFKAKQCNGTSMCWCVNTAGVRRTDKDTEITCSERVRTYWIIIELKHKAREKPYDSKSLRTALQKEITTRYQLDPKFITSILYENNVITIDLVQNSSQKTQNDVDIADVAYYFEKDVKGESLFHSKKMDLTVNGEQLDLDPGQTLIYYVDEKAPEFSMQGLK

B1: ING-1 Fab, heavy chain D104P (Fab, V domains shown)
VH: QIQLVQSGPELKKPGETVKISCKASGYTFTKYGMNWVKQAPGKGLKWMGWINTYTEEPTYGDDFKGRFAFSLETSASTANLQINNLKSEDTATYFCARFGSAVPYWGQGTSVTVSS
VL: DIVMTQAAFSNPVTLGTSGSISCRSSKSLLHSNGITYLYWYLQKPGQSPQLLIYQMSNLASGVPDRFSSSGSGTDFTLRISRVEAEDVGVYYCAQNLELPRTFGGGTKLEMKR
notes: Fab in periplasmic extract
B2: ING-1 Fab, heavy chain D104T (Fab, V domains shown)
VH: B1 VH with P104T
VL: B1 VL
notes: Fab in periplasmic extract
B3: ING-1 Fab, heavy chain D104V (Fab, V domains shown)
VH: B1 VH with P104V
VL: B1 VL
notes: Fab in periplasmic extract
B4: ING-1 Fab, heavy chain E56P (Fab, V domains shown)
VH: B1 VH with E56P, P104D
VL: B1 VL
notes: Fab in periplasmic extract
B5: ING-1 Fab, heavy chain E57L (Fab, V domains shown)
VH: B1 VH with E57L, P104D
VL: B1 VL
notes: Fab in periplasmic extract
B6: ING-1 Fab, heavy chain E57P (Fab, V domains shown)
VH: B1 VH with E57P, P104D
VL: B1 VL
notes: Fab in periplasmic extract
B7: ING-1 Fab, heavy chain G33A (Fab, V domains shown)
VH: B1 VH with G33A, P104D
VL: B1 VL
notes: Fab in periplasmic extract
B8: ING-1 Fab, heavy chain G33T (Fab, V domains shown)
VH: B1 VH with G33T, P104D
VL: B1 VL
notes: Fab in periplasmic extract
B9: ING-1 Fab, heavy chain G33V (Fab, V domains shown)
VH: B1 VH with G33V, P104D
VL: B1 VL
notes: Fab in periplasmic extract
B10: ING-1 Fab, heavy chain G100P (Fab, V domains shown)
VH: B1 VH with G100P, P104D
VL: B1 VL
notes: Fab in periplasmic extract
B11: ING-1 Fab, heavy chain K31L (Fab, V domains shown)
VH: B1 VH with K31L, P104D
VL: B1 VL
notes: Fab in periplasmic extract
B12: ING-1 Fab, heavy chain N52A (Fab, V domains shown)
VH: B1 VH with N52A, P104D
VL: B1 VL
notes: Fab in periplasmic extract
B13: ING-1 Fab, heavy chain N52G (Fab, V domains shown)
VH: B1 VH with N52G, P104D
VL: B1 VL
notes: Fab in periplasmic extract
B14: ING-1 Fab, heavy chain N52I (Fab, V domains shown)
VH: B1 VH with N52I, P104D
VL: B1 VL
notes: Fab in periplasmic extract
B15: ING-1 Fab, heavy chain N52L (Fab, V domains shown)
VH: B1 VH with N52L, P104D
VL: B1 VL
notes: Fab in periplasmic extract
B16: ING-1 Fab, heavy chain N52P (Fab, V domains shown)
VH: B1 VH with N52P, P104D
VL: B1 VL
notes: Fab in periplasmic extract
B17: ING-1 Fab, heavy chain N52T (Fab, V domains shown)
VH: B1 VH with N52T, P104D
VL: B1 VL
notes: Fab in periplasmic extract
B18: ING-1 Fab, heavy chain N52V (Fab, V domains shown)
VH: B1 VH with N52V, P104D
VL: B1 VL
notes: Fab in periplasmic extract
B19: ING-1 Fab, heavy chain P58T (Fab, V domains shown)
VH: B1 VH with P58T, P104D
VL: B1 VL
notes: Fab in periplasmic extract
B20: ING-1 Fab, heavy chain S101L (Fab, V domains shown)
VH: B1 VH with S101L, P104D
VL: B1 VL
notes: Fab in periplasmic extract
B21: ING-1 Fab, heavy chain T53G (Fab, V domains shown)
VH: B1 VH with T53G, P104D
VL: B1 VL
notes: Fab in periplasmic extract
B22: ING-1 Fab, heavy chain T53P (Fab, V domains shown)
VH: B1 VH with T53P, P104D
VL: B1 VL
notes: Fab in periplasmic extract
B23: ING-1 Fab, heavy chain T55G (Fab, V domains shown)
VH: B1 VH with T55G, P104D
VL: B1 VL
notes: Fab in periplasmic extract
B24: ING-1 Fab, heavy chain T59P (Fab, V domains shown)
VH: B1 VH with T59P, P104D
VL: B1 VL
notes: Fab in periplasmic extract
B25: ING-1 Fab, heavy chain W50A (Fab, V domains shown)
VH: B1 VH with W50A, P104D
VL: B1 VL
notes: Fab in periplasmic extract
B26: ING-1 Fab, heavy chain W50G (Fab, V domains shown)
VH: B1 VH with W50G, P104D
VL: B1 VL
notes: Fab in periplasmic extract
B27: ING-1 Fab, heavy chain W50I (Fab, V domains shown)
VH: B1 VH with W50I, P104D
VL: B1 VL
notes: Fab in periplasmic extract
B28: ING-1 Fab, heavy chain W50L (Fab, V domains shown)
VH: B1 VH with W50L, P104D
VL: B1 VL
notes: Fab in periplasmic extract
B29: ING-1 Fab, heavy chain W50P (Fab, V domains shown)
VH: B1 VH with W50P, P104D
VL: B1 VL
notes: Fab in periplasmic extract
B30: ING-1 Fab, heavy chain W50T (Fab, V domains shown)
VH: B1 VH with W50T, P104D
VL: B1 VL
notes: Fab in periplasmic extract
B31: ING-1 Fab, heavy chain W50V (Fab, V domains shown)
VH: B1 VH with W50V, P104D
VL: B1 VL
notes: Fab in periplasmic extract
B32: ING-1 Fab, heavy chain Y32A (Fab, V domains shown)
VH: B1 VH with Y32A, P104D
VL: B1 VL
notes: Fab in periplasmic extract

Target: T1, Ep-CAM
Assay: Biacore, Fab periplasmic extract on immobilised Epcam

| Binder | binding result | fold difference in affinity vs original [fold] |
| --- | --- | --- |
| B1 | no binding |  |
| B2 | no binding |  |
| B3 | no binding |  |
| B4 |  | 0.01 |
| B5 | no binding |  |
| B6 | no binding |  |
| B7 |  | 0.06 |
| B8 |  | 0.01 |
| B9 |  | 0.04 |
| B10 | no binding |  |
| B11 |  | 0.6 |
| B12 | no binding |  |
| B13 | no binding |  |
| B14 | no binding |  |
| B15 | no binding |  |
| B16 | no binding |  |

| Binder | binding result | fold difference in affinity vs original [fold] |
| --- | --- | --- |
| B17 | no binding |  |
| B18 | no binding |  |
| B19 |  | 1 |
| B20 | no binding |  |
| B21 | no binding |  |
| B22 | no binding |  |
| B23 |  | 0.02 |
| B24 | no binding |  |
| B25 |  | 0.03 |
| B26 |  | 0.03 |
| B27 |  | 0.07 |
| B28 |  | 0.04 |
| B29 | no binding |  |
| B30 |  | 0.03 |
| B31 |  | 0.02 |
| B32 |  | 0.01 |
